Test results: publication PMC9186069, “Borrelia miyamotoi FbpA and FbpB Are Immunomodulatory Outer Surface Lipoproteins With Distinct Structures and Functions” (Frontiers in Immunology, 2022)

T1: C1r zymogen (human, UniProt P00736 18-705)
T1 construct: also called zymogen form of full-length purified C1r; zymogen C1r; source: bought: Complement Technology, Inc. (purified)
T1 sequence: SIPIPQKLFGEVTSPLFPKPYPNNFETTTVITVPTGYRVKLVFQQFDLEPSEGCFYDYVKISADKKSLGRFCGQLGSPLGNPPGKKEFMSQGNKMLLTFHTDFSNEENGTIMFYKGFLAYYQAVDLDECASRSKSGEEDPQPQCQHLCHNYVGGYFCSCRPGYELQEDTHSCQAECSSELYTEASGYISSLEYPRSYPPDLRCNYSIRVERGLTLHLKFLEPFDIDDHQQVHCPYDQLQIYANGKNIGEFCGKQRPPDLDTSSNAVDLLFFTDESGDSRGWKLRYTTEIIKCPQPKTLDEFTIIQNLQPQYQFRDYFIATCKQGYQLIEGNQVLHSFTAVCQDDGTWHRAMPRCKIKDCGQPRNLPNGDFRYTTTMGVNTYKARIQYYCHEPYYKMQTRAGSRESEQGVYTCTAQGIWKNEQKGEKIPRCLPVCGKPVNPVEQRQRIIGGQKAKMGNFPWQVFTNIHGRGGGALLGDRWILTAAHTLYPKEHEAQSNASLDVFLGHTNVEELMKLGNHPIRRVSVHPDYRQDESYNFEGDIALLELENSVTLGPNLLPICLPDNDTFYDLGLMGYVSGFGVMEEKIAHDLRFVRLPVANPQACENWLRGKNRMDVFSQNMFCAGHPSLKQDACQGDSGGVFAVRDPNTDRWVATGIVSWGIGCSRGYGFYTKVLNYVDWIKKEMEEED

B1: FbpA-C (domain or fragment)
chain: GSTGSDNRYKSYLEGVRYNVSAAIGSIDKIYNNYKLFEEQRTKMYSTRLDTVTKDQAKKEAEKFTKEELEKDLKELLNYIQVSAKTATNFVYQKEQYAKQRLDKLETEVKTLISEVQGQSHPYEAYKAIVRSKFLQMKDSLEVVKGVIDRDGPWY
notes: Made from pT7HMT-FbpA-C; also called FbpA(222-371); C-terminal truncation construct of B. miyamotoi FbpA; source: E. coli BL21 (DE3), purified (Ni column, TEV, gel filtration)
B2: FbpB-C (domain or fragment)
chain: DNQYKFKLKNITDSVEQALKIAKQIKDDLDIIEFHRIKLSNHYGIRAEEHEKQTAREELSKFSKDKLEADLKKLLSEIEKSLNAATILITYNDYGGNLQSDLSAKTTLEALKTEVSSLITKIQDFNNKDHQAYPTSYYNDYQTYQALRNPYSKLTLVKDLLTRTGIVAR

Assays:
Conditions in all cases: both partners purified
C1r zymogen = target: T1, C1r zymogen; experiment: SPR; FbpA-C or FbpB-C immobilised by amine coupling; full-length C1r zymogen or active C1r injected, fivefold dilution series 0-100 nM, single cycle, final dissociation 1 hour; Biacore T200, 25°C; kinetic fits
active C1r = active C1r (human, UniProt P00736, activated two-chain form, cleaved between 463 and 464 (cleavage limits from UniProt chain features), heavy and light chains disulfide-linked; plasma-purified glycoprotein; native C1r forms a Ca-depend); experiment: as above
C1r-CCP2-SP = target: T2, C1r-CCP2-SP (human); experiment: SPR; FbpA-C, FbpB-C or FbpA DA-C immobilised by amine coupling; C1r-CCP2-SP injected, twofold dilution series 0-100 nM, multi-cycle; Biacore T200, 25°C, 30 μL/min; kinetic fits
T2 construct: source: recombinant (pT7HMT-C1r-CCP2-SP), purified by previously published protocols with a final gel filtration step
T2 sequence (A0A0U2RP97 entry or part of it): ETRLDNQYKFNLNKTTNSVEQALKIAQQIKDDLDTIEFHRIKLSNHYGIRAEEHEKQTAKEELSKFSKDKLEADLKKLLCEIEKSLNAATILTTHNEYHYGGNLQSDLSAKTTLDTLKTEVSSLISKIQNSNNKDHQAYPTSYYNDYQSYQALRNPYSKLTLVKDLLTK

Binder | Kd (C1r zymogen) [nM] | koff (C1r zymogen) [s⁻¹] | kon (C1r zymogen) [M⁻¹ s⁻¹] | Kd (active C1r) [nM] | koff (active C1r) [s⁻¹] | kon (active C1r) [M⁻¹ s⁻¹] | Kd (C1r-CCP2-SP) [nM] | koff (C1r-CCP2-SP) [s⁻¹] | kon (C1r-CCP2-SP) [M⁻¹ s⁻¹]
B1 | 0.85 | 1.9e-05 | 22000 | 0.39 | 2.7e-05 | 68000 |  |  | 
B2 |  |  |  | 1.1 | 7.6e-05 | 68000 | 1.4 | 0.00055 | 390000
